One experiment deals with lrp8_human LRP8 (UniProt Q14114).
For another experiment, the target named is vldlr_human VLDLR (UniProt P98155).

The values below come from IntAct's records for PubMed 17548821.

Chain of lrp8_human LRP8 (Q14114 whole entry): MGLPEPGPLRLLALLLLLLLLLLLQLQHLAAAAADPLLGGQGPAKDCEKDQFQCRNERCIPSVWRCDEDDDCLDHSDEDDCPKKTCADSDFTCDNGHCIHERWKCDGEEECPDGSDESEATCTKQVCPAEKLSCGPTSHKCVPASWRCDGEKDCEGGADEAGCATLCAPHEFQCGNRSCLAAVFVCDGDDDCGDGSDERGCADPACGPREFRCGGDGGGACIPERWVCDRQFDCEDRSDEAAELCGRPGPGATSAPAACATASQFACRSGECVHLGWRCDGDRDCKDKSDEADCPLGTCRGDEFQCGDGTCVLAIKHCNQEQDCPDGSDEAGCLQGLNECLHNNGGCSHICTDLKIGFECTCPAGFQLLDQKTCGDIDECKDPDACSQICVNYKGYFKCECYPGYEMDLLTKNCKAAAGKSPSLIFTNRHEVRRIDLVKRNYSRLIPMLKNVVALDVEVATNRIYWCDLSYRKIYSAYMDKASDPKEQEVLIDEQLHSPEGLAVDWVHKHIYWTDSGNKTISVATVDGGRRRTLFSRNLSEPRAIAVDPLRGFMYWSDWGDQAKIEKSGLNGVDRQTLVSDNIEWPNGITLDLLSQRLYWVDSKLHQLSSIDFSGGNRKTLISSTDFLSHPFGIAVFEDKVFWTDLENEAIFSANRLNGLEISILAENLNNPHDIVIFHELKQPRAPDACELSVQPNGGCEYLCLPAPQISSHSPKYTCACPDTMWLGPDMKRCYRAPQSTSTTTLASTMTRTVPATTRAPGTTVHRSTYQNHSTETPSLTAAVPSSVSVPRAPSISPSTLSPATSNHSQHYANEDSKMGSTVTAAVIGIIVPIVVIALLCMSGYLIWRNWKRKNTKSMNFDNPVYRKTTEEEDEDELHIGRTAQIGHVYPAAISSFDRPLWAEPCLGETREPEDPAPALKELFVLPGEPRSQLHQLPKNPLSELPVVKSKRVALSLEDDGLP

Regarding Reelin (Mus musculus), Q60841 K2360A, the “effect of a mutation on the interaction” value with lrp8_human LRP8 is on record as “disrupting interaction strength”.
Take “Reelin (Mus musculus), Q60841 K2360A;K2467A”: the “effect of a mutation on the interaction” value with lrp8_human LRP8 was “disrupting interaction strength”.
Take Reelin (Mus musculus), Q60841 K2467A: the “effect of a mutation on the interaction” value with lrp8_human LRP8 and in the experiment with vldlr_human VLDLR was “disrupting interaction strength” each time.
